Read-outs that look alike come from different tables or passages of the source.
Legend:
human CCR8 [1] = molecular target: T1, human CCR8 (human, UniProt P51685 1-355); assay: cell-based or functional assay
T1 sequence (P51685 whole entry): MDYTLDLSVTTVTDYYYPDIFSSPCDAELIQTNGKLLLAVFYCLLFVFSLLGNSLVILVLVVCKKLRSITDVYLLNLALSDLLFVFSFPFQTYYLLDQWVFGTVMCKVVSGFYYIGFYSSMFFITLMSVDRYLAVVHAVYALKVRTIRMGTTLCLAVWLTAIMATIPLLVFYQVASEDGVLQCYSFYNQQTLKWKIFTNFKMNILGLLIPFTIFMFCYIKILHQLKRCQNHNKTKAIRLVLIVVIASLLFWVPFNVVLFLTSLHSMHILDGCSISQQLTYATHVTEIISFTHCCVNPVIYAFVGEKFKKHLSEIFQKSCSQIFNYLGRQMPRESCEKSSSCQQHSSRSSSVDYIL

human CCR8 [2] = molecular target: T1, human CCR8; assay: cell-based or functional assay; remark: listed apart in the source
[3] = molecular target: human CCR8 tagged with ProLink (PK) (human, UniProt P51685 1-355); assay: cell-based or functional assay
human CCR8 [4] = molecular target: T1, human CCR8; assay: cell-based or functional assay; remark: listed apart in the source
human CCR8 [5] = molecular target: T1, human CCR8; assay: flow cytometry on TALL-1 cells (endogenous CCR8)
Procedure: Briefly, a total of 5×10⁴ cells for each well were seeded in 96-well plates and washed with FACS buffer (DPBS containing 1.5% FBS) for once. Antibodies were prepared with 3-fold serial dilution ranging from 100 nM to 0.00508 nM in FACS buffer. Cells were incubated with 50 μL of diluted antibodies at 4° C. for 40 minutes. After primary antibody incubation, cells were washed twice by FACS buffer. Then, cells were stained by Alexa Flu647-labeled anti-human IgG Fc secondary antibody (Jackson ImmunoResearch, #109606170) at 1:500 dilution in FACS buffer for 40 minutes at 4° C. After 2 times wash with FACS buffer, flow cytometry (BD FACS Celesta) was performed to measure the binding affinities of antibodies.

human CCR8 [6] = molecular target: T2, human CCR8 (human, UniProt P51685 1-355); assay: cell-based or functional assay; remark: listed apart in the source
T2 sequence (P51685 whole entry): as above

human CCR8 [7] = molecular target: T2, human CCR8; assay: cell-based or functional assay; remark: listed apart in the source
human CCR8 [8] = molecular target: T2, human CCR8; assay: cell-based or functional assay; remark: listed apart in the source
human CCR8 [9] = molecular target: T2, human CCR8; assay: cell-based or functional assay; remark: listed apart in the source
human CCR8 [10] = molecular target: T2, human CCR8; assay: FACS on CHO-K1-human CCR8 cells
human CCR8 [11] = molecular target: T2, human CCR8; assay: FACS on CHO-K1-human CCR8 cells; remark: listed apart in the source
cynomolgus CCR8 [12] = molecular target: T3, cynomolgus CCR8 (cynomolgus, UniProt G7NYJ2 1-355); assay: FACS on HEK293-cynomolgus CCR8 cells
T3 construct: whole, on cells
T3 sequence (G7NYJ2 entry or part of it): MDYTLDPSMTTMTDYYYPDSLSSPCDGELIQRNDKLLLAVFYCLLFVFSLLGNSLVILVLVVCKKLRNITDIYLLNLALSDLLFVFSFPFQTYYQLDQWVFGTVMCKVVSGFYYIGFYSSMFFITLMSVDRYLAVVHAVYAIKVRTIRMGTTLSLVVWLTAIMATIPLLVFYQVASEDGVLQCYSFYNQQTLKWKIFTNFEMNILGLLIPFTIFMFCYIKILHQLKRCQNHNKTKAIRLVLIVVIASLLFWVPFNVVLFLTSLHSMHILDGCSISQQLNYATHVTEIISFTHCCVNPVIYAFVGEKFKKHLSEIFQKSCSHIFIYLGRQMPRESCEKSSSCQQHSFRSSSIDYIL

cynomolgus CCR8 [13] = molecular target: T3, cynomolgus CCR8; assay: FACS on HEK293-cynomolgus CCR8 cells; remark: listed apart in the source
human CCR8 [14] = molecular target: T2, human CCR8; assay: FACS on HuT78 cells (endogenous human CCR8)
How it was run: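 HuT78 cells with endogenous human CCR8 were incubated with diluted antibodies for 1 h at 4 °C, washed, then stained 0.5 h at 4 °C with Alexa Fluor 647 anti-human IgG (1:600). Binding measured by flow cytometry.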

human CCR8 [15] = molecular target: T2, human CCR8; assay: FACS on HuT78 cells (endogenous human CCR8); remark: listed apart in the source
human CCR8 [16] = molecular target: T2, human CCR8; assay: FACS, competition with CCL1 on CHO-K1-human CCR8 cells
human CCR8 [17] = molecular target: T2, human CCR8; assay: as above; remark: listed apart in the source
human CCR8 [18] = molecular target: T1, human CCR8; assay: cell-based or functional assay; remark: listed apart in the source

Sequence of human CCR8 tagged with ProLink (PK) (P51685 whole entry): as the sequence (P51685 whole entry) above

B1: Hu149-11G1m (antibody, human IgG1)
heavy: EVQLVESGGGLVQPGGSLKLSCAASGFTFNTYAMNWVRQASGKGLEWVGRIRSKSNFYATAYAASVKGRFTISRDDSKNTAYLQMNSLKTEDTAVYYCTRGREYGSSYAMDYWGQGTLVTVSSASTKGPSVFPLAPSSKSTSGGTAALGCLVKDYFPEPVTVSWNSGALTSGVHTFPAVLQSSGLYSLSSVVTVPSSSLGTQTYICNVNHKPSNTKVDKKVEPKSCDKTHTCPPCPAPELVGGPSVFLLPPKPKDTLMISRTPEVTCVVVDVSHEDPEVKFNWYVDGVEVHNAKTKPPEEQYNSTLRVVSVLTVLHQDWLNGKEYKCKVSNKALPAPIEKTISKAKGQPREPQVYTLPPSRDELTKNQVSLTCLVKGFYPSDIAVEWESNGQPENNYKTTPLVLDSDGSFFLYSKLTVDKSRWQQGNVFSCSVMHEALHNHYTQKSLSLSPGK
VL: DIVMTQSPLSLPVTPGEPASISCRSSKSLLHSNANTYLYWFLQKPGQSPQLLIYRMSNLASGVPDRFSGSGSGTDFTLKISRVEAEDVGVYYCMQHLEYPLTFGGGTKVELK
notes: also called Hu149-11G1m (ADCC enhanced variant with L235V/F243L/R292P/Y300L/P396L Fc mutations)
Human CCR8 [1]
  EC50, ADCC reporter, F variant CD16a/NFAT-Jurkat, target CHO-K1-human CCR8 cells: 5.6 pM
  EC50, ADCC reporter, F variant CD16a/NFAT-Jurkat, target HuT78 cells: 16.4 pM
  EC50, ADCC reporter, V variant CD16a/NFAT-Jurkat, target CHO-K1-human CCR8 cells: 7.25 pM
  EC50, ADCC reporter, V variant CD16a/NFAT-Jurkat, target HuT78 cells: 20.3 pM
  Max (RLU), ADCC reporter, F variant CD16a/NFAT-Jurkat, target CHO-K1-human CCR8 cells: 8.28e+06 RLU
  Max (RLU), ADCC reporter, F variant CD16a/NFAT-Jurkat, target HuT78 cells: 1.59e+07 RLU
  Max (RLU), ADCC reporter, V variant CD16a/NFAT-Jurkat, target CHO-K1-human CCR8 cells: 3.93e+06 RLU
  Max (RLU), ADCC reporter, V variant CD16a/NFAT-Jurkat, target HuT78 cells: 8.7e+06 RLU
Human CCR8 [2]
  EC50, ADCC with human PBMCs, target CHO-K1-human CCR8 cells: 0.085 pM
  Max specific lysis (%), ADCC with human PBMCs, target CHO-K1-human CCR8 cells: 46.6%
[3]
  IC50, inhibition of CCL1 induced β-Arrestin recruitment, CHO-K1-human CCR8 β-Arrestin cells: 2090 pM
Human CCR8 [4]
  EC50, ADCC with human PBMCs (LDH release), target TALL-1 cells: 0.682 pM
Human CCR8 [5]
  EC50: 328 pM

B2: Hu149-4-mIgG2a (antibody, V domains shown)
VH: EVQLVESGGGLVQPGGSLKLSCAASGFTFNTYAMNWVRQASGKGLEWVGRIRSKSNFYATYYAASVKGRFTISRDDSKNTAYLQMNSLKTEDTAVYYCTRGRDYGSSYAMDYWGQGTLVTVSS
VL: DIVMTQSPLSLPVTPGEPASISCRSSKSLLHSNANTYLYWFLQKPGQSPQLLIYRMSNLASGVPDRFSGSGSGTDFTLKISRVEAEDVGVYYCMQHLEYPLTFGGGTKVELK
Human CCR8 [6]
  IC50, blocking of CCL1 induced cell migration: 2950 pM

B3: Hu149-9 mIgG2a (antibody, V domains shown)
VH: EVQLVESGGGLVQPGGSLKLSCAASGFTFNTYAMNWVRQASGKGLEWVGRIRSKSNFYATAYAASVKGRFTISRDDSKNTAYLQMNSLKTEDTAVYYCTRGRDYGSSYAMDYWGQGTLVTVSS
VL: DIVMTQSPLSLPVTPGEPASISCRSSKSLLHSNANTYLYWFLQKPGQSPQLLIYRMSNLASGVPDRFSGSGSGTDFTLKISRVEAEDVGVYYCMQHLEYPLTFGGGTKVELK
Human CCR8 [7]
  IC50, inhibition of CCL1 induced β-Arrestin recruitment: 8640 pM
Human CCR8 [6]
  IC50, blocking of CCL1 induced cell migration: 1920 pM

B4: Hu149-11 (antibody, human IgG1)
heavy: not shown
VL: DIVMTQSPLSLPVTPGEPASISCRSSKSLLHSNANTYLYWFLQKPGQSPQLLIYRMSNLASGVPDRFSGSGSGTDFTLKISRVEAEDVGVYYCMQHLEYPLTFGGGTKVELK
notes: also called Hu149-11G1
Human CCR8 [8]
  IC50, inhibition of CCL1 induced β-Arrestin recruitment: 800 pM
  Max Inhibition (%), CCL1 induced β-Arrestin recruitment: 85.2%
Human CCR8 [9]
  IC50, blocking of cell migration induced by CCL1: 849 pM
Human CCR8 [10]
  EC50: 79.7 pM
  Max MFI: 648000 MFI
Human CCR8 [11]
  EC50: 158 pM
  Max MFI: 210000 MFI
Cynomolgus CCR8 [12]
  EC50: 137 pM
  Max MFI: 4.6e+06 MFI
Cynomolgus CCR8 [13]
  EC50: 262 pM
  Max MFI: 4.48e+06 MFI
Human CCR8 [14]
  EC50: 278 pM
  Max MFI: 30200 MFI
Human CCR8 [15]
  EC50: 735 pM
  Max MFI: 57900 MFI
Human CCR8 [16]
  IC50: 98.8 pM
  Max Inhibition (%): 100%
Human CCR8 [17]
  IC50: 283 pM
  Max Inhibition (%): 99.5%

B5: Hu149-11G1 (antibody, human IgG1)
heavy: not shown
VL: DIVMTQSPLSLPVTPGEPASISCRSSKSLLHSNANTYLYWFLQKPGQSPQLLIYRMSNLASGVPDRFSGSGSGTDFTLKISRVEAEDVGVYYCMQHLEYPLTFGGGTKVELK
notes: also called Hu149-11G1 (wild type variant)
Human CCR8 [1]
  EC50, ADCC reporter, F variant CD16a/NFAT-Jurkat, target CHO-K1-human CCR8 cells: 58.6 pM
  EC50, ADCC reporter, F variant CD16a/NFAT-Jurkat, target HuT78 cells: 402 pM
  EC50, ADCC reporter, V variant CD16a/NFAT-Jurkat, target CHO-K1-human CCR8 cells: 39.1 pM
  EC50, ADCC reporter, V variant CD16a/NFAT-Jurkat, target HuT78 cells: 586 pM
  Max (RLU), ADCC reporter, F variant CD16a/NFAT-Jurkat, target CHO-K1-human CCR8 cells: 4.71e+06 RLU
  Max (RLU), ADCC reporter, F variant CD16a/NFAT-Jurkat, target HuT78 cells: 4.07e+06 RLU
  Max (RLU), ADCC reporter, V variant CD16a/NFAT-Jurkat, target CHO-K1-human CCR8 cells: 2.03e+06 RLU
  Max (RLU), ADCC reporter, V variant CD16a/NFAT-Jurkat, target HuT78 cells: 3.89e+06 RLU
Human CCR8 [2]
  EC50, ADCC with human PBMCs, target CHO-K1-human CCR8 cells: 13.9 pM
  Max specific lysis (%), ADCC with human PBMCs, target CHO-K1-human CCR8 cells: 52.5%
Human CCR8 [18]
  EC50, ADCC reporter, 158F CD16a/NFAT-Jurkat, target TALL-1 cells: 120 pM
  EC50, ADCC reporter, 158V CD16a/NFAT-Jurkat, target TALL-1 cells: 65.8 pM
Human CCR8 [4]
  EC50, ADCC with human PBMCs (LDH release), target TALL-1 cells: 12.1 pM
Human CCR8 [5]
  EC50: 315 pM

B6: Hu149-12 (antibody, human IgG1)
heavy: not shown
VL: DIVMTQSPLSLPVTPGEPASISCRSSKSLLHSNANTYLYWFLQKPGQSPQLLIYRMSNLASGVPDRFSGSGSGTDFTLKISRVEAEDVGVYYCMQHLEYPLTFGGGTKVELK
notes: human IgG1; suffix G1 read as wild type as for Hu149-11G1; also called Hu149-12G1
Human CCR8 [8]
  IC50, inhibition of CCL1 induced β-Arrestin recruitment: 350 pM
  Max Inhibition (%), CCL1 induced β-Arrestin recruitment: 85.8%
Human CCR8 [9]
  IC50, blocking of cell migration induced by CCL1: 953 pM
Human CCR8 [10]
  EC50: 67.5 pM
  Max MFI: 638000 MFI
Human CCR8 [11]
  EC50: 93 pM
  Max MFI: 199000 MFI
Cynomolgus CCR8 [12]
  EC50: 199 pM
  Max MFI: 4.04e+06 MFI
Cynomolgus CCR8 [13]
  EC50: 170 pM
  Max MFI: 3.61e+06 MFI
Human CCR8 [14]
  EC50: 170 pM
  Max MFI: 26900 MFI
Human CCR8 [15]
  EC50: 250 pM
  Max MFI: 48100 MFI
Human CCR8 [16]
  IC50: 98.2 pM
  Max Inhibition (%): 100%
Human CCR8 [17]
  IC50: 184 pM
  Max Inhibition (%): 99.5%

B7: Hu348-4 mIgG2a (antibody, V domains shown)
VH: EVQLVESGGGLVQPGGSLKLSCATSGFSFSNYRMHWLRQASGKGLEWVGVITVKSDNYGANYAASVKGRFTISRDDSKSSVYLQMNSLKTEDTAVYYCSSLGRVAYWGQGTLVTVSS
VL: DIQMTQSPSSVSASVGDRVTITCKASQNVDTNVVWYQQKPGQSPKALIYSASSRYSGVPSRFSGSGSGTDFTLTISSLQPEDFATYYCQQHNSFPLTFGQGTKLEIK
Human CCR8 [7]
  IC50, inhibition of CCL1 induced β-Arrestin recruitment: 860000 pM
